Reference: patent US20230114491A1 (IMMUNEONCO BIOPHARMACEUTICALS SHANGHAI, published 2023)

How the values were obtained:
CD24 [1] = biological target: T1, CD24 (human, UniProt P25063 27-59); assay: flow cytometry on MCF-7 cells that carry both CD24 and CD47; the two targets are not resolved
T1 construct: whole, on cells; GPI-anchored cell surface protein; also called human CD24; hCD24
T1 chain (looked up): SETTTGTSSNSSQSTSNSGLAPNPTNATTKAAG
Experimental: (§1) Cells were washed with cold PBS twice, and then incubated with 100 μl FITC-conjugated secondary antibody against human IgG-Fc (Cat #F9512, Sigma) for 45 min. Cells were washed twice and re-suspended in 200 μl PBS. Then, the cells were subject to FACS analysis using a flow cytometer (Merck Millipore, Guava® easyCyte 5HT).

CD47 [2] = biological target: T2, CD47 (human, UniProt Q08722 19-323); assay: as above
T2 construct: whole, on cells; also called CD47s on Jurkat cells; CD47s on MCF-7 human breast cancer cells
Experimental: as §1

CD47 [3] = biological target: T2, CD47; assay: flow cytometry on Jurkat cells (naturally expressing CD47), FITC anti-human IgG-Fc
Experimental: as §1

CD24 [4] = biological target: T1, CD24; assay: flow cytometry on CD24+CD47+ MCF-7 cells; positive control
Experimental: as §1

T2 sequence (Q08722 19-323): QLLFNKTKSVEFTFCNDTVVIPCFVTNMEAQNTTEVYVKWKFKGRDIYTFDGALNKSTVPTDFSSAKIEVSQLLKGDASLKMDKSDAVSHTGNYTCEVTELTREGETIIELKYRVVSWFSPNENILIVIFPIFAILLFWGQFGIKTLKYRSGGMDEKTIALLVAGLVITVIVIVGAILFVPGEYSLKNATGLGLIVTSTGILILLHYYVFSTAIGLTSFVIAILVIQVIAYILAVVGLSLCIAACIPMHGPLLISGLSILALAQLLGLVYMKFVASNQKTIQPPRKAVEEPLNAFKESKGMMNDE

B1: IMM4702C (bispecific antibody, human IgG1, kappa)
heavy: DVQLQESGPDLVKPSQSLSLTCTVTGYSITSGYSWHWIRQFPGNKLEWMGYIHYSGSTKYNPSLKSRISITRDTSKNQFFLQLNSVTTEDTATYFCARGADYALDYWGQRTSVTVSSASTKGPSVFPLAPSSKSTSGGTAALGCLVKDYFPEPVTVSWNSGALTSGVHTFPAVLQSSGLYSLSSVVTVPSSSLGTQTYICNVNHKPSNTKVDKRVEPKSCDKTHTCPPCPAPELLGGPSVFLFPPKPKDTLMISRTPEVTCVVVDVSHEDPEVKFNWYVDGVEVHNAKTKPREEQYNATYRVVSVLTVLHQDWLNGKEYKCKVSNKALPAPIAATISKAKGQPREPQVYTLPPSREEMTKNQVSLTCLVKGFYPSDIAVEWESNGQPENNYKTTPPVLDSDGSFFLYSKLTVDKSRWQQGNVFSCSVMHEALHNHYTQKSLSLSPGK
light: not shown
notes: Mutated SIRPαD1 linked via (G4S)3 to the N-terminus of each light chain of IMM47C; also called recombinant fusion protein IMM4702C; IMM47C's heavy chain + SIRPαD1-linker-IMM47C's light chain
- binding result (CD24 [1]): binds
- binding result (CD47 [2]): binds

B2: IMM4702H (bispecific antibody, human IgG1, kappa)
heavy: DVQLQESGPGLVKPSETLSLTCTVSGYSITSGYSWHWIRQPPGKGLEWIGYIHYSGSTKYNPSLKSRVTISVDTSKNQFSLKLSSVTAADTAVYYCARGADYALDYWGQRTSVTVSSASTKGPSVFPLAPSSKSTSGGTAALGCLVKDYFPEPVTVSWNSGALTSGVHTFPAVLQSSGLYSLSSVVTVPSSSLGTQTYICNVNHKPSNTKVDKRVEPKSCDKTHTCPPCPAPELLGGPSVFLFPPKPKDTLMISRTPEVTCVVVDVSHEDPEVKFNWYVDGVEVHNAKTKPREEQYNATYRVVSVLTVLHQDWLNGKEYKCKVSNKALPAPIAATISKAKGQPREPQVYTLPPSREEMTKNQVSLTCLVKGFYPSDIAVEWESNGQPENNYKTTPPVLDSDGSFFLYSKLTVDKSRWQQGNVFSCSVMHEALHNHYTQKSLSLSPGK
light: not shown
notes: Mutated SIRPαD1 linked via (G4S)3 to the N-terminus of each light chain of IMM47H (humanized VH and VL); also called recombinant fusion protein IMM4702H; IMM47H's heavy chain + SIRPαD1-linker-IMM47H's light chain
- binding result (CD24 [1]): binds
- binding result (CD47 [2]): binds

B3: IMM4701 (bispecific antibody, human IgG1, kappa)
heavy: not shown
light: DIQMTQSPSSLSASVGDRVTITCKSSQSLLYSSNQKNYLAWYQQKPGKAPKLLIYWASTRESGVPSRFSGSGSGTDFTLTISSLQPEDFATYYCQQNFIYPLTFGGGTKVELKRTVAAPSVFIFPPSDEQLKSGTASVVCLLNNFYPREAKVQWKVDNALQSGNSQESVTEQDSKDSTYSLSSTLTLSKADYEKHKVYACEVTHQGLSSPVTKSFNRGEC
notes: Mutated SIRPαD1 linked via (G4S)3 to the N-terminus of each heavy chain of the anti-CD24 IgG IMM47 (mouse VH, humanized VL); also called recombinant fusion protein IMM4701; SIRPαD1-linker-IMM47's heavy chain + IMM47's light chain
- binding result (CD47 [3]): binds
- binding result (CD24 [1]): binds

B4: IMM47H (antibody, human IgG1, kappa, V domains shown)
VH: DVQLQESGPGLVKPSETLSLTCTVSGYSITSGYSWHWIRQPPGKGLEWIGYIHYSGSTKYNPSLKSRVTISVDTSKNQFSLKLSSVTAADTAVYYCARGADYALDYWGQRTSVTVSS
VL: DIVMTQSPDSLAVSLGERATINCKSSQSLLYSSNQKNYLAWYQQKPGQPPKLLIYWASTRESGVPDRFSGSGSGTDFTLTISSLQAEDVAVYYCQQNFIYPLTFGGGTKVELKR
notes: IgG antibody with humanized VH and humanized VL; also called anti-CD24 antibody IMM47H
- binding result (CD24 [4]): binds
